In US20190194284A1:
Where two headings read alike, the source gives them in different places. One block for each molecule: values may come before it.

Legend:
Assay in all cases: cell-based or functional assay
[1] = target: T1, type I interferon-α/β receptor (IFNAR), composed of the IFNAR1 and IFNAR2 subunits (human) (UniProt P17181)
T1 sequence (looked up) 1: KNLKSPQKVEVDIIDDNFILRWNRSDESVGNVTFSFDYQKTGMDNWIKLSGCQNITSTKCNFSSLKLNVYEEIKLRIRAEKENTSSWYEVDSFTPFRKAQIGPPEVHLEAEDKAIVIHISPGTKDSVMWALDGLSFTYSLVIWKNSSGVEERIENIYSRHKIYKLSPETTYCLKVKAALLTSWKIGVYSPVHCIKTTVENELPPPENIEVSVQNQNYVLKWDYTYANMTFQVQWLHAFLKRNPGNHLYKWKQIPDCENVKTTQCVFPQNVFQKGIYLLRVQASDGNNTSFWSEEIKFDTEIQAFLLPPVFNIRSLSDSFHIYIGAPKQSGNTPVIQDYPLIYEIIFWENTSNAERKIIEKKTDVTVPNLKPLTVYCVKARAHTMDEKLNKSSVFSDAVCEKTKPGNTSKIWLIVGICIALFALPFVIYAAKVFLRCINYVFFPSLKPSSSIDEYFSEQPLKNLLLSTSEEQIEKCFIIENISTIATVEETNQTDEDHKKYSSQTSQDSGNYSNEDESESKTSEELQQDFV
T1 sequence (looked up) 2: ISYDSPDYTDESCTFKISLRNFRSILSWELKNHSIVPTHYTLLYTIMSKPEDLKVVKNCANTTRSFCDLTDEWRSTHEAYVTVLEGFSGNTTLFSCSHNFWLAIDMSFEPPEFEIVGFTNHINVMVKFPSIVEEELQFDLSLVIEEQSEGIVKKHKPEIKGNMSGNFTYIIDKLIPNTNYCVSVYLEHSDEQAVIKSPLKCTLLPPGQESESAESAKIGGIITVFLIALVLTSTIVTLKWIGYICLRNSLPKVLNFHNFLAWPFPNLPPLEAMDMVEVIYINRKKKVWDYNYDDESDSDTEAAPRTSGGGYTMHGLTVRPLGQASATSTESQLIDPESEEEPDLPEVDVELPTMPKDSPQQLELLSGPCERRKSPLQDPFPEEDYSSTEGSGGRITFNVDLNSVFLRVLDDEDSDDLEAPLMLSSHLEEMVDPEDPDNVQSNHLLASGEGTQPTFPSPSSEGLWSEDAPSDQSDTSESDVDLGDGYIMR

[2] = target: T1, type I interferon-α/β receptor (IFNAR), composed of the IFNAR1 and IFNAR2 subunits (human); remark: listed apart in the source
[3] = target: T2, human CD20 (human) (UniProt P11836)
T2 sequence (looked up): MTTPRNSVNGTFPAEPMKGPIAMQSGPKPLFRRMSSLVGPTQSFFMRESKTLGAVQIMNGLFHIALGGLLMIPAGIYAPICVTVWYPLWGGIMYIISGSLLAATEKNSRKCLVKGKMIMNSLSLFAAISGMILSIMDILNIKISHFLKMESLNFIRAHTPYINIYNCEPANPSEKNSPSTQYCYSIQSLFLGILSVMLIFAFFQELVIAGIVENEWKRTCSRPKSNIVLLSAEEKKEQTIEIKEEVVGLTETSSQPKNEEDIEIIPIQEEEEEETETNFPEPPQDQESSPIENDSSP

EC50 for pSTAT1 in CD19 negative cells of human PBMCs [1]: 0.592 ng/ml | EC50 for pSTAT1 in CD19 positive cells of human PBMCs [1]: 0.422 ng/ml
Molecule: wild type human IFN-β (from UniProt P01574 22-187) (ligand)

EC50 for pSTAT1 in CD19 negative cells of human PBMCs [2]: 687 ng/ml | EC50 for pSTAT1 in CD19 positive (CD20 positive B) cells of human PBMCs [3]: 97 ng/ml | Targeting effect (EC50 on CD19 negative cells divided by that on CD19 positive cells) [3]: 7.1 fold | targeting effect, anti-proliferative activity on Daudi (CD20 positive) versus Wish (CD20 negative) cells [3]: 24.3 fold
B1: huCD20 VHH-20*GGS-huIFNβ-6*His, wild type hIFNβ coupled to anti-huCD20 VHH (P-126) (protein)
chain: QVQLQESGGGLAQAGGSLRLSCAASGRTFSMGWFRQAPGKEREFVAAITYSGGSPYYASSVRGRFTISRDNAKNTVYLQMNSLKPEDTAVYYCAANPTYGSDWNAENWGQGTQVTVSSGGSGGSGGSGGSGGSGGSGGSGGSGGSGGSGGSGGSGGSGGSGGSGGSGGSGGSGGSGGSMSYNLLGFLQRSSNFQCQKLLWQLNGRLEYCLKDRMNFDIPEEIKQLQQFQKEDAALTIYEMLQNIFAIFRQDSSSTGWNETIVENLLANVYHQINHLKTVLEEKLEKEDFTRGKLMSSLHLKRYYGRILHYLKAKEYSHCAWTIVRVEILRNFYFINRLTGYLRNHHHHHH
